Test results taken from publication PMC6397515.

Experiments:
[1] = molecular target: HypT RD M206Q mutant protein (Salmonella enterica serovar Typhimurium); test: crystal structure
[2] = molecular target: full-length StHypT protein (HypT of Salmonella enterica serovar Typhimurium, WP_000383509) (Salmonella enterica serovar Typhimurium); test: SEC
[3] = molecular target: full-length StHypT protein (HypT of Salmonella enterica serovar Typhimurium, WP_000383509) (Salmonella enterica serovar Typhimurium); test: crystal structure

Substance	stoichiometry N [1]	stoichiometry N [2]	stoichiometry N [3]
HypT RD M206Q mutant protein (domain or fragment)	2	–	–
full-length StHypT protein (HypT of Salmonella enterica serovar Typhimurium, WP_000383509) (natural protein)	–	4	4
